Experimental findings from patent US20120058118A1 (Boehringer Ingelheim, published 2012) are described below.

The target of one assay is T1, A-beta(12-28) peptide (human).
T1 construct: Bachem peptide captured on streptavidin chip; also called monomeric A-beta(12-28); central region
T1 peptide: Biotin-VHHQKLVFFAEDVGSNK
The assay can be described thus: SPR on captured A-beta(12-28).

Assay [1] concerns the target T2, human A-beta(1-40) peptide, monomeric (BAM) (human, biotin at the C-terminus in capture ELISA, SPR and TR-FRET; not biotinylated where coated directly (Example 7)). Nature of the assay: cell-based or functional assay.
Assay [2] addresses T2, human A-beta(1-40) peptide, monomeric …. Nature of the assay: BAM ELISA.
For assay [3] the target is unchanged. The assay can be described thus: TR-FRET competition, labelled ABII60A10. (In general: In TR-FRET formats the signal depends on donor and acceptor labels being close together.)
Assay [4] addresses T3, aggregated A-beta(1-40) peptide (BAA) (human).
T3 construct: also called A-beta peptide aggregates
Nature of the assay: BAA ELISA.

The next assay deals with T4, A-beta(1-16) peptide (human).
T4 construct: Bachem peptide captured on streptavidin chip; also called monomeric A-beta(1-16)
T4 peptide: DAEFRHDSGYEVHHQK-biotin
Nature of the assay: SPR on captured A-beta(1-16).

The target in assay [5] is T2, human A-beta(1-40) peptide, monomeric …. The assay can be described thus: TR-FRET competition, labelled ABII42D4.
Assay [6] has the same target. Nature of the assay: ABII002 TR-FRET competition assay.
For assay [7] the target is unchanged. The assay can be described thus: ABII050 TR-FRET competition assay.
Assay [8] shares this target. The assay can be described thus: 60A10 TR-FRET assay (labelled ABII60A10).
For assay [9] the target is unchanged. Nature of the assay: 42D4 TR-FRET assay (labelled ABII42D4).
The target is the same in assay [10]. The assay can be described thus: BAM ELISA. The source holds these as a separate data set.
The target is the same in assay [11]. The assay can be described thus: TR-FRET competition.
Assay [12] concerns the target T3, aggregated A-beta(1-40) peptide (BAA). The assay can be described thus: BAA ELISA. This is another data set of the same source. For orientation: An ELISA detects its analyte on a solid surface through an enzyme-linked reagent.
For assay [13], the target named is T2, human A-beta(1-40) peptide, monomeric …. Nature of the assay: cell-based or functional assay. The source holds these as a separate data set.
The target is the same in assay [14]. Nature of the assay: TR-FRET competition and SPR.
Assay [15] has the same target. The assay can be described thus: TR-FRET competition, labelled ABII42D4. This is another data set of the same source.

One may read the EC50 as the concentration that produces a half-maximal response. Read a low EC50 as a more potent agent. As a reminder, the IC50 is the concentration that inhibits the measured activity by half. A higher IC50 goes with a need for much substance.

Where two headings read alike, the source gives them in different places. Ends that are not written are not given here. * marks the point of attachment. Biotin = O=C1N[C@H]2[C@H](CS[C@H]2CCCCC(=O)*)N1

Protocol for A-beta(1-16) peptide: (§1) After capturing, surfaces are blocked by injecting an excess (200 μg/ml) of d-biotin for 180 s at 5 μl/min. A reference surface is washed and blocked with d-biotin. HBS-EP+buffer is used as the running buffer and experiments are performed at 25° C. For off-rate screening, periplasmic extracts of VHHs are injected at a 10-fold dilution for 2 min at 45 μl/min and are allowed to dissociate for 10 min. […] Between different VHH samples, the surfaces are regenerated with regeneration buffer (50 mM NaOH) for 25 s at 45 μl/min followed by 10 s 6M GuHCl at 45 μl/min if regeneration is incomplete. […] Data are double referenced by subtraction of the curves on the reference channel and of a blank running buffer injection. Sensorgrams are evaluated by fitting a 1:1 dissociation model using the Biacore T100 Evaluation software v1.1.1.
Protocol for A-beta(12-28) peptide: as §1

B1: ABII14D4 (VHH)
VHH: EVQLVESGGGLVQAGGSLRLSCAASGRTFSTYNMAWFRHAPGKEREFVAAISRSGGSTYYVDSVKGRFTISRDNAKNTVYLQMNSLKPEDTAIYYCAAAPRGRSIVTTATYDYWGQGTQVTVSS
With B1, the binding result in the assay with A-beta(12-28) peptide is reported as “binds”. Moreover, in assay [1], the “inhibition of peptide aggregation (ThT fluorescence), 28 µM VHH” value came out at 78%. Moreover, the EC50 in assay [2] came out at 124 nM; in assay [4] it was 6.8 nM. The molecule also showed an IC50 in assay [3] of 744 nM.

B2: ABII60D2 (VHH)
VHH: EVQLVESGGGSVQAGGSLRLSCAYSGSIFSIKTMGWYRQAPGKQRELVGRITSGDSTNYADSVKGRFTISRDKAKTTVYLQMNNLKPEDTAVYYCAARRPWPRSDVWGQGTQVTVSS
Take B2: the EC50 in [2] was over 1000 nM. The binding result with A-beta(1-16) peptide is “binds”.

B3: ABII42G10 (VHH)
VHH: EVQLVESGGGLVQAGGSLRLSCLFSGRTFSTNGVGWFRQVPGKEREFVSAINWSGSKTNYAEPVKGRFTISRDNAKNTAYLQMNSLKPEDTAVYYCAAYRTSISRYEYAYWGQGTQVTVSS
Regarding B3, the EC50 worked out at 87 nM in assay [2] and 49.5 nM in assay [4]. Further, the binding result with A-beta(1-16) peptide is reported as “binds”. This molecule gave a concentration for half-maximal inhibition (IC50) in assay [5] of over 1000 nM.

B4: ABII42B10 (VHH)
VHH: EVQLVESGGGLVQRGGSLRLSCAASGRTFSNLNMGWFRQAPGKEREFQAAISRSGGTTYYADSVKGRFTISRDNAKSTVFLQMNSLKPEDTAVYYCAAASPGGPINYGRAYDSWGQGTQVTVSS
Regarding B4, in the assay with A-beta(12-28) peptide, the binding result is on record as “binds”. Also, in [1], the “inhibition of peptide aggregation (ThT fluorescence), 28 µM VHH” value was 77%. The half-maximal effective concentration (EC50) in assay [2] stood at 10.8 nM; in assay [4], 2.1 nM. The molecule further showed a half-maximal inhibitory concentration (IC50) in [3] of 85.6 nM.

B5: ABII60H5 (VHH)
VHH: EVQLVESGGGLVQVGGSLRLSCAASGNIGSINAMGWYRQAPGKEREWVAIITNSGSVNYGPDSVKGRFTISGDNAKNRVYLQMDSLKPEDTAVYYCAAESWGRSPLKYLGQGTQVTVSS
The molecule B5 came in with a 50% effective concentration (EC50) in assay [2] of over 1000 nM. Moreover, in the assay with A-beta(1-16) peptide, the binding result was “binds”.

B6: ABII323-PEG40 (designed binder)
chain: VQLLESGGGLVQPGGSLRLSCAASGRTFNNYNMGWFRQAPGKGREFVAAVSRSGVSTYYADSVKGRFTISRDNSKNTVYLQMNSLRPEDTAVYYCAAAYRGTAINVRRSYSSWGQGTLVTVSSGGGGSGGGGSGGGGCGGGGSGGGGSGGGGSGGGGSEVQLLESGGGLVQPGGSLRLSCVHSGPTFRTDTMGWFRQAPGKGREFVAAVTWNSGRINYADSVKGRFTISRDNSKNTAYLQMNSLRPEDTAVYYCAAHRFVVGGNRVEDWRYWGQGTLVTVSS
modifications: PEG40 on the Cys at position 15 of the 35GS linker
notes: 059-35GSC-035
B6: the half-maximal inhibitory concentration (IC50) in assay [6] was 0.18 nM; in [7], 0.2 nM.

B7: ABII42D4-35GS-ABII60A10 (designed binder)
chain: EVQLVESGGGLVLAGGSLRLSCVHSGPTFSTDTMGWFRQAPGKEREFVAAVTWNSGRTNYADSVKGRFTVSRDNTRNAAYLQMSGLKDEDTAVYYCTAHRLVVGGTSVGDWRYWGQGTQVTVSSGGGGSGGGGSGGGGSGGGGSGGGGSGGGGSGGGGSEVQLVESGGGLVQAGGSLRLSCAASGRTFNNYNMGWFRQAPGKEREFVAAVSRSGVSTYYADSVKGRFTISRDNAKNAVYLQMNSLKPEDTAIYYCGAAYRGTAINVRRSYDSWGQGTQVTVSS
notes: biparatopic VHH construct
Turning to B7, the 50% inhibitory concentration (IC50) in [8] came to 0.084 nM; in assay [9], 0.05 nM.

B8: ABII5D2 (VHH)
VHH: EVQLVESGGGLVQAGGSLRLSCAASGRTFSSYAMGWVRQAPGKERELVATISQSGGLRSYADSVKGRFTISRDNAKNTVYLQMNSLTPGDTAVYYCAAQARATAWSPQRVDYWGQGTQVTVSS
Turning to B8, the EC50 in assay [2] worked out at 54.1 nM; in [4] it was 11.7 nM. Further, in the assay with A-beta(1-16) peptide, the binding result is “binds”. The same molecule showed an IC50 in assay [5] of over 1000 nM.

B9: ABII60A10-35GS-ABII42D4 (designed binder)
chain: EVQLVESGGGLVQAGGSLRLSCAASGRTFNNYNMGWFRQAPGKEREFVAAVSRSGVSTYYADSVKGRFTISRDNAKNAVYLQMNSLKPEDTAIYYCGAAYRGTAINVRRSYDSWGQGTQVTVSSGGGGSGGGGSGGGGSGGGGSGGGGSGGGGSGGGGSEVQLVESGGGLVLAGGSLRLSCVHSGPTFSTDTMGWFRQAPGKEREFVAAVTWNSGRTNYADSVKGRFTVSRDNTRNAAYLQMSGLKDEDTAVYYCTAHRLVVGGTSVGDWRYWGQGTQVTVSS
notes: biparatopic VHH construct
Turning to B9, the IC50 in assay [8] was 0.091 nM; in assay [9] it was 0.055 nM.

B10: reference VHH 2G6 (VHH)
VHH: QVKLEESGGGLVQPGGSLRLSCAASGFTFSNYWMYWVRQAPGKGLEWVSTISPRAANTYYADSVKGRFTISRDNAKNTLYLQMNSLEPDDTALYYCAKSLRYRDRPQSSDFLFWRQGTQVTVSS
notes: from WO2006/40153
Regarding B10, the EC50 came out at 98.6 nM in assay [10], 98.6 nM in assay [2], 7.2 nM in assay [12] and 7.2 nM in [4]. Further, the IC50 in assay [11] and in assay [5] was over 1000 nM in each case. In addition, in assay [13], the “Aggregation inhibition (% inhibition at 26 µM)” value stood at 29%.

B11: ABII111B5_E109Q (VHH)
VHH: EVQLVESGGGLVLAGGSLRLSCVHSGPTFRTDTMGWFRQAPGKEREFVAAVTWNSGRINYADSVKGRFTVSRDNTRNAAYLQMSGLKDEDTAVYYCTAHRFVVGGNMVQDWRYWGQGTQVTVSS
notes: targeted mutant
For B11, the “fold improvement of IC50 and KD over original ABII42D4” value in [14] is over 10 fold. In assay [15], the IC50 stood at 3.7 nM.

B12: ABII111B5_M107E (VHH)
VHH: EVQLVESGGGLVLAGGSLRLSCVHSGPTFRTDTMGWFRQAPGKEREFVAAVTWNSGRINYADSVKGRFTVSRDNTRNAAYLQMSGLKDEDTAVYYCTAHRFVVGGNEVEDWRYWGQGTQVTVSS
notes: targeted mutant
B12: in [14], the “fold improvement of IC50 and KD over original ABII42D4” value is over 10 fold. In assay [15], this molecule gave an IC50 of 4.3 nM.

B13: ABII059-27GS-ABII035-MSA (designed binder)
chain: EVQLLESGGGLVQPGGSLRLSCAASGRTFNNYNMGWFRQAPGKGREFVAAVSRSGVSTYYADSVKGRFTISRDNSKNTVYLQMNSLRPEDTAVYYCAAAYRGTAINVRRSYSSWGQGTLVTVSSGGGSGGGGSGGGGSGGGGSGGGGSGGGEVQLLESGGGLVQPGGSLRLSCVHSGPTFRTDTMGWFRQAPGKGREFVAAVTWNSGRINYADSVKGRFTISRDNSKNTAYLQMNSLRPEDTAVYYCAAHRFVVGGNRVEDWRYWGQGTLVTVSS
notes: built from the printed name; not shown: mouse serum albumin
In the case of B13, the half-inhibitory concentration (IC50) in [6] was 0.19 nM; in [7] it was 0.18 nM.

B14: ABII059-27GS-ABII035-MSA_D3 (designed binder)
chain: EVQLLESGGGLVQPGGSLRLSCAASGRTFNNYNMGWFRQAPGKGREFVAAVSRSGVSTYYADSVKGRFTISRDNSKNTVYLQMNSLRPEDTAVYYCAAAYRGTAINVRRSYSSWGQGTLVTVSSGGGSGGGGSGGGGSGGGGSGGGGSGGGEVQLLESGGGLVQPGGSLRLSCVHSGPTFRTDTMGWFRQAPGKGREFVAAVTWNSGRINYADSVKGRFTISRDNSKNTAYLQMNSLRPEDTAVYYCAAHRFVVGGNRVEDWRYWGQGTLVTVSS
notes: built from the printed name; not shown: domain III of mouse serum albumin
With B14, the half-maximal inhibitory concentration (IC50) in assay [6] turned out to be 0.1 nM; in assay [7] it was 0.12 nM.
